# Data as given in PMC9668737, “Herpes simplex virus 1 protein pUL21 alters ceramide metabolism by activating the interorganelle transport protein CERT” (The Journal of Biological Chemistry, 2022).
# Positions count from the first letter of the chain named.
# B1: pUL21-H6 (natural protein)
# chain: MELSYATTMHYRDVVFYVTTDRNRAYFVCGGCVYSVGRPCASQPGEIAKFGLVVRGTGPDDRVVANYVRSELRQRGLQDVRPIGEDEVFLDSVCLLNPNVSSELDVINTNDVEVLDECLAEYCTSLRTSPGVLISGLRVRAQDRIIELFEHPTIVNVSSHFVYTPSPYVFALAQAHLPRLPSSLEALVSGLFDGIPAPRQPLDAHNPRTDVVITGRRAPRPIAGSGAGSGGAGAKRATVSEFVQVKHIDRVGPAGVSPAPPPNNTDSSSLVPGAQDSAPPGPTLRELWWVFYAADRALEEPRADSGLTREEVRAVRGFREQAWKLFGSAGAPRAFIGAALGLSPLQKLAVYYYIIHRERRLSPFPALVRLVGRYTQRHGLYVPRPDDPVLADAINGLFRDALAAGTTAEQLLMFDLLPPKDVPVGSDVQADSTALLRFIESQRLAVPGGVISPEHVAYLGAFLSVLYAGRGRMSAATHTARLTGVTSLVLAVGDVDRLSAFDRGAAGAASRTRAAGYLDVLLTVRLARSQHGQSV
# notes: HSV-1 pUL21, UniProt F8RG07; some paragraphs print H6-pUL21; also called H6-pUL21; WT pUL21; source: E. coli T7 Express lysY/Iq, purified (Ni-NTA, SEC); not shown: His6, C-terminal, kept
# Legend:
# [1] = target: T1, StrepII-CERTL^P (hyperphosphorylated StrepII-tagged CERTL) (human, UniProt Q9Y5P4-1 1-624, hyperphosphorylated (sites not given)); assay: ITC; 25 °C; 20 mM Tris pH 8.5, 500 mM NaCl, 0.5 mM TCEP; CERTL forms in the syringe titrated into pUL21 forms in the cell; one-site binding model; details: both partners purified
# T1 construct: human CERTL, UniProt Q9Y5P4-1, synthetic gene; Trimer by SEC-MALS (observed 184.3 kDa, expected 215.7 kDa); not shown: StrepII, N-terminal, kept
# T1 sequence (looked up): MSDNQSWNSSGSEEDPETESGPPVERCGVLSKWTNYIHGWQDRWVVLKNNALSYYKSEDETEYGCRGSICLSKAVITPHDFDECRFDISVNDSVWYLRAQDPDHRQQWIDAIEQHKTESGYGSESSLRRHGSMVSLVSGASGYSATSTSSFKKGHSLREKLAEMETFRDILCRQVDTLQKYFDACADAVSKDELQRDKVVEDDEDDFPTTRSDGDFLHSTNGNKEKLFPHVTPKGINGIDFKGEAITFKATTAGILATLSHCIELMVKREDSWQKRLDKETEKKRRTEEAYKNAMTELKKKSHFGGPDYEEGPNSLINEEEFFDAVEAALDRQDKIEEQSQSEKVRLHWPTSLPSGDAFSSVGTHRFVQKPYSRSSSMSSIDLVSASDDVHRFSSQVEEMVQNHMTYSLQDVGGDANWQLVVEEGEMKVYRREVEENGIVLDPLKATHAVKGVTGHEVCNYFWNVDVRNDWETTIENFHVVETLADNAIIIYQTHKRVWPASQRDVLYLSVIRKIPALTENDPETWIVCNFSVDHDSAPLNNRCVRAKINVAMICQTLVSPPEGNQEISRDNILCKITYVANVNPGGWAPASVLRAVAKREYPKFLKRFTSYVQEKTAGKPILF
# StrepII-CERTL^S132A = target: T2, StrepII-CERTL^S132A (human, UniProt Q9Y5P4-1 1-624, S132A, hypophosphorylated); assay: as above; details: both partners purified
# T2 construct: human CERTL, UniProt Q9Y5P4-1, synthetic gene, S132A; Trimer by SEC-MALS (observed 199.2 kDa); also called constitutively hypophosphorylated form of CERTL; source: Freestyle 293F, stably transfected, doxycycline-induced, purified (StrepTrap HP, Superose 6 SEC); not shown: StrepII, N-terminal, kept
# T2 sequence (looked up): T1 sequence (looked up) with S132A
# StrepII-CERT^P = target: T3, StrepII-CERT^P (UniProt Q9Y5P4-2 1-598, hyperphosphorylated (sites not given)); assay: cell-based or functional assay
# T3 sequence (looked up): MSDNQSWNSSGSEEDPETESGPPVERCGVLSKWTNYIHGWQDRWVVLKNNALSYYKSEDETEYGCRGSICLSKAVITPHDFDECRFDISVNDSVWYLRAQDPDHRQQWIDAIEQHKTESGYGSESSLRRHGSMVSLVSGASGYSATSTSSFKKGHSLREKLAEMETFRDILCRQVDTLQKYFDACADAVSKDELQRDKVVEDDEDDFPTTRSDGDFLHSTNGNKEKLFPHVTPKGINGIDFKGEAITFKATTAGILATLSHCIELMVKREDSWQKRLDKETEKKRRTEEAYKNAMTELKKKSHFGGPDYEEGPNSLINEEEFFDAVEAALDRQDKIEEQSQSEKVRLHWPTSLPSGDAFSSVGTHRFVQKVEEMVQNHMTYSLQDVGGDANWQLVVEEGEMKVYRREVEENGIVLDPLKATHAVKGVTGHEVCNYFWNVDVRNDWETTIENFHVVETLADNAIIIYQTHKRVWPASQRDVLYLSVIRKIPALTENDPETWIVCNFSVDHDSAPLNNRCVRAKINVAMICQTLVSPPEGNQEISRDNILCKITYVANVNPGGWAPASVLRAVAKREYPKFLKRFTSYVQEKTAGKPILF
binder,measurement,setting,value
B1,Kd,[1],0.773 µM
same,Kd,StrepII-CERTL^S132A,0.642 µM
same,"EC50 of pUL21-H6 (62.5 nM to 4 μM) for accelerating GST-PP1-mediated dephosphorylation of 0.5 μM CERT^P in vitro, all proteins purified, 25 nM GST-PP1γ, 30 min at 30 °C",StrepII-CERT^P,0.491 μM
